Measured values: PMC8244865, “Recruitment of phospholipase Cγ1 to the non-structural membrane protein pK15 of Kaposi Sarcoma-associated herpesvirus promotes its Src-dependent phosphorylation” (PLoS Pathogens, 2021)

Experiments:
Assay type in all cases: binding
[1] = system: full-length PLCγ1 R586L or R694L; test: GST-pulldown, full-length PLCγ1 R586L or R694L; conditions: phosphorylated; full-length PLCγ1, HEK 293T; versus WT
Protocol: (§1) Fig 3 Contribution of individual PLCγ1 SH2 domains to the interaction with phosphorylated pK15. The pK15 CT fused to GST, its Y^481F mutant, or GST alone were bound to glutathione beads, phosphorylated in vitro (+) or left unphosphorylated (-), and a GST pulldown was performed 32h after transfection into HEK-293T cells of expression vectors for S-tagged full-length PLCγ1 (FL) (A) or PLCγ1 SA (B) containing the indicated mutations. (C) pK15 CT WT, its Y^481F mutant or GST were bound to glutathione beads, phosphorylated in vitro (+) or left unphosphorylated (-), and used for a GST pulldown assay 32h after transfecting HEK 293T cells with expression vectors for S-tagged individual PLCγ1 nSH2 or cSH2 domains. […]
(§2) HEK293T cells were washed once with cold PBS 30 hours after transfection, lysed in IP buffer (50 mM Tris pH7.6, 60 mM NaCl, 6.25 mM EDTA, 1% (v/v) glycerol, 0.04% (v/v) NP-40) on ice for 30 minutes, sonicated shortly and cleared by centrifugation for 10 minutes at 20.000g, 4°C. […] Beads were then washed 5 times in 500 μl IP buffer (or for purified proteins IP buffer with 200 mM NaCl), suspended in 10 μl of 5x Laemmli sample buffer (60 mM Tris pH6.8, 24% (v/v) glycerol, 2% (v/v) SDS, 5% (v/v) β-mercaptoethanol, 0.01% Bromphenol Blue) and analysed by western blot.

[2] = system: PLCγ1 (transfected and endogenous, HEK-293T lysates); test: GST-pulldown, full length PLCγ1; conditions: in vitro phosphorylated by Src; transfected and endogenous PLCγ1, HEK 293 lysates; Western blot
Protocol: (§3) Fig 2 K15 phosphorylation results in a stronger binding to PLCγ1. (A) An expression plasmid for an S-tagged full length PLCγ1 or the empty vector (EV) were transfected in HEK-293T cells. After 30h cells were lysed and a GST-pulldown assay was performed with GST-fused pK15 CT (WT), the pK15 CT Y^481F mutant (Y^481F) or GST that had been bound to glutathione beads and previously phosphorylated by GST-6xHis Src (+) or left unphosphorylated (-). Bound proteins were analysed by WB using antibodies to the S tag on PLCγ1 and pTyr. (B) Untransfected HEK-293T cells were lysed and a GST-pulldown assay with pre-phosphorylated (+) or unphosphorylated (-) GST-fused pK15 CT WT/Y^481F or GST was performed and analysed by WB as in (A). (C) An expression plasmid for an S-tagged PLCγ1 SA or the empty vector were transfected in HEK-293T cells. […]
as §2

[3] = system: PLCγ1 SA; test: GST-pulldown, PLCγ1 SA
Protocol: as §3, §2

[4] = system: PLCγ1 SA R586L+R694L; test: GST-pulldown, PLCγ1 SA double mutant; conditions: phosphorylated; HEK 293T
Protocol: as §1, §2

B1: pK15 CT^WT: pK15 cytoplasmic tail fused to GST at its N-terminal end, phosphorylated in vitro by Src (protein)
chain: SQLLNEVELQEVNRDPPNVFGYASILVSGAEESREPSPQPDQSGMSILRVDGGSAFRIDTAQAATQPTDDLYEEVLFPRN
modifications: tyrosine-phosphorylated in vitro by Src; sites not stated for this construct; left off: GST, N-terminal, kept
binding of mutants (GST-pulldown) [1]: moderately reduced binding
interaction with PLCγ1 (GST-pulldown) [2]: substantial increase in its interaction with PLCγ1
interaction with PLCγ1 SA (GST-pulldown) ([3]; in vitro phosphorylated by Src, transfected SA in HEK 293, Western blot): bound more strongly to the SA region than the phosphorylated pK15 CT^Y481F mutant
interaction with PLCγ1 SA, unphosphorylated (GST-pulldown) ([3]; without prior in vitro phosphorylation by Src kinase): marginal binding to PLCγ1 SA
binding of double mutant (GST-pulldown) [4]: completely eliminated the binding
